Source: patent US20080267974A1 (SCHERING, published 2008)
Residue numbers refer to the chain shown, from its start. “And” between values parts separate entries of the source, which are not always exact repeats. Identical values can stand only once. Like-named read-outs stand apart in the source and are kept apart here.

B1: MAb 812 (antibody, V domains shown)
VH: EVQLLESGGGLIQPGGSLRLSCAASGFTVSSNYMSWVRQAPGKGLEWVSVIYSGGRTYYADSVKGRFTISRDSSKNTLYLQMNSLRAEDTAVYYCARNYYGSTYDYWGQGTLVTVSS
VL: EIVLTQSPVTLSVPPGERASLSCRASQNIYTAVAWYQQKPGQAPRLLIYGASTRATGIPARFSGGGSGTDYTLTISSLESEDFAVYHCQQYFSWPLTFGGGTKLEIK
notes: IgG1/kappa, CHO; also called H1192/L308
B2: MAb 1896 (antibody, V domains shown)
VH: EVQLVESGGGLIQPGGSLRLSCAVSGLNVSRDYMSWVRQAPGKGLEWISVIYRGGATMYADSVKGRFTISRDTSKNTVFLQMSRLKVADTAVYYCARNYYGSTLDYWGQGTLVTVSS
VL: B1 VL with G50N, Y91W, F92H
notes: IgG1/kappa, CHO; also called H1685/L459
B3: MAb 1895 (antibody, V domains shown)
VH: B2 VH with L104H
VL: B1 VL with G50N, Y91W, F92H
notes: IgG1/kappa, CHO; also called H1596/L459
B4: MAb 1131 (antibody, V domains shown)
VH: B1 VH with Y104H
VL: B1 VL with Y91W, F92H
notes: IgG1/kappa, CHO; also called H1518/L332
B5: MAb 813 (antibody, V domains shown)
VH: B1 VH
VL: B1 VL with F92M
notes: IgG1/kappa, CHO; also called H1192/L309
B6: MAb 1067 (antibody, V domains shown)
VH: B1 VH with Y104L
VL: B1 VL with Y91W, F92H
notes: IgG1/kappa, CHO; also called H1487/L332
B7: MAb 1780 (antibody, V domains shown)
VH: B2 VH
VL: B1 VL with Y91W, F92H
notes: IgG1/kappa, CHO; also called H1685/L332
B8: MAb 815 (antibody, V domains shown)
VH: B1 VH
VL: B1 VL with F92H, S93A
notes: IgG1/kappa, CHO; also called H1192/L311
B9: MAb 1874 (antibody, V domains shown)
VH: EVQLLESGGGLIQPGGSLRLSCAASGFTVGNNYMSWVRQAPGKGLEWVSVIYSAGSTYYADSVKGRFIISRDNSKDTVYLQMNSLRVDDTAVYYCARNYYGSTMDYWGQGTLVTVSS
VL: B1 VL with Y91W, F92H
notes: IgG1/kappa, CHO; also called H1725/L332
B10: MAb 1999 (antibody, V domains shown)
VH: B2 VH with A56I
VL: B1 VL with G50N, Y91W, F92H
notes: IgG1/kappa, CHO; also called H1824/L459
B11: MAb 2019 (antibody, V domains shown)
VH: B2 VH with A56V
VL: B1 VL with G50N, Y91W, F92H
notes: IgG1/kappa, CHO; also called H1844/L459
B12: MAb 1852 (antibody, V domains shown)
VH: B9 VH with M104L
VL: B1 VL with Y91W, F92H
notes: IgG1/kappa, CHO; also called H1729/L332
B13: MAb 2060 (antibody, V domains shown)
VH: B2 VH with A56V
VL: B1 VL with V9A, P14S, G50N, Y91W, F92H
notes: IgG1/kappa, CHO; also called H1844/L471
B14: MAb 1851 (antibody, V domains shown)
VH: B9 VH with M104F
VL: B1 VL with Y91W, F92H
notes: IgG1/kappa, CHO; also called H1728/L332
B15: MAb 2006 (antibody, V domains shown)
VH: B2 VH with M58H
VL: B1 VL with G50N, Y91W, F92H
notes: IgG1/kappa, CHO; also called H1831/L459
B16: MAb 2090 (antibody, V domains shown)
VH: B2 VH with G54I
VL: B1 VL with V9A, P14S, G50N, S52A, Y91W, F92H
notes: IgG1/kappa, CHO; also called H1813/L472
B17: MAb 1043 (antibody, V domains shown)
VH: B1 VH with Y104M
VL: B1 VL with Y91W, F92H
notes: IgG1/kappa, CHO; also called H1483/L332
B18: MAb 1714 (antibody, V domains shown)
VH: B2 VH with L104F
VL: B1 VL with Y91W, F92H
notes: IgG1/kappa, CHO; also called H1678/L332
B19: MAb 2071 (antibody, V domains shown)
VH: B2 VH with A56V
VL: B1 VL with V9A, P14S, G50N, S52A, Y91W, F92H
notes: IgG1/kappa, CHO; also called H1844/L472
B20: MAb 1989 (antibody, V domains shown)
VH: B2 VH with G54V
VL: B1 VL with G50N, Y91W, F92H
notes: IgG1/kappa, CHO; also called H1814/L459
B21: MAb 855 (antibody, V domains shown)
VH: B1 VH
VL: B1 VL with Y91W, F92H
notes: IgG1/kappa, CHO; also called H1192/L332
B22: MAb 1210 (antibody, V domains shown)
VH: B1 VH with Y104V
VL: B1 VL with Y91W, F92H
notes: IgG1/kappa, CHO; also called H1557/L332
B23: MAb 1777 (antibody, V domains shown)
VH: B2 VH with L104I
VL: B1 VL with Y91W, F92H
notes: IgG1/kappa, CHO; also called H1684/L332
B24: MAb 1988 (antibody, V domains shown)
VH: B2 VH with G54I
VL: B1 VL with G50N, Y91W, F92H
notes: IgG1/kappa, CHO; also called H1813/L459
B25: MAb 1775 (antibody, V domains shown)
VH: B2 VH with L104M
VL: B1 VL with Y91W, F92H
notes: IgG1/kappa, CHO; also called H1687/L332
B26: MAb 1371 (antibody, V domains shown)
VH: B2 VH with L104H
VL: B1 VL with Y91W, F92H
notes: IgG1/kappa, CHO; also called H1596/L332
B27: MAb 1850 (antibody, V domains shown)
VH: B9 VH with M104H
VL: B1 VL with Y91W, F92H
notes: IgG1/kappa, CHO; also called H1727/L332

Key:
[1] = molecular target: T1, tumor necrosis factor alpha (TNFα) (human, UniProt P01375 77-233); assay: affinity by IC50 ELISA (so named in paragraph 380)
T1 sequence (P01375 77-233 limits assumed): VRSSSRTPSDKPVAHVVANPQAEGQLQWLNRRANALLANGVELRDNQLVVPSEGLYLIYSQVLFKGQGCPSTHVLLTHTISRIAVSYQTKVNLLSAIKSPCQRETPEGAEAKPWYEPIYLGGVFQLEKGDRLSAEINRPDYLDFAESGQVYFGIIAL

[2] = molecular target: T1, tumor necrosis factor alpha (TNFα); assay: Biacore (SPR); MAb captured by immobilised goat anti-human IgG polyclonal antibody, TNFα as analyte
[3] = molecular target: T1, tumor necrosis factor alpha (TNFα); assay: affinity by IC50 ELISA (so named in paragraph 380); remark: listed apart in the source
[4] = molecular target: T1, tumor necrosis factor alpha (TNFα); assay: affinity by IC50 ELISA (so named in paragraph 380); remark: listed apart in the source
[5] = molecular target: T1, tumor necrosis factor alpha (TNFα); assay: cell-based or functional assay
[6] = molecular target: T1, tumor necrosis factor alpha (TNFα); assay: affinity by IC50 ELISA (so named in paragraph 380); remark: listed apart in the source
[7] = molecular target: T1, tumor necrosis factor alpha (TNFα); assay: affinity by IC50 ELISA (so named in paragraph 380); remark: listed apart in the source
[8] = molecular target: T1, tumor necrosis factor alpha (TNFα); assay: affinity by IC50 ELISA (so named in paragraph 380); remark: listed apart in the source
[9] = molecular target: T1, tumor necrosis factor alpha (TNFα); assay: affinity by IC50 ELISA (so named in paragraph 380); remark: listed apart in the source
[10] = molecular target: T1, tumor necrosis factor alpha (TNFα); assay: affinity by IC50 ELISA (so named in paragraph 380); remark: listed apart in the source
[11] = molecular target: T1, tumor necrosis factor alpha (TNFα); assay: affinity by IC50 ELISA (so named in paragraph 380); remark: listed apart in the source

Molecule | Affinity [3] | IC50, TNFα cytotoxicity assay (WEHI-13VAR cells) [5] | other results
Humira® (antibody) |  |  | Affinity [1]: 0.09 nM; Ka [2]: 3.31e+10 M⁻¹; Kd [2]: 0.0303 nM
B1 | 0.32 nM |  | Affinity [4]: 0.32 nM
B2 | 0.08 nM | 0.79 nM and 0.9 nM | Affinity [6]: 0.08 nM; Affinity [7]: 0.08 nM
B3 | 0.09 nM | 0.89 nM | Affinity [6]: 0.09 nM
B4 | 0.13 nM |  | Affinity [8]: 0.13 nM
B5 | 0.42 nM |  | Affinity [4]: 0.42 nM
B6 | 0.12 nM |  | Affinity [8]: 0.12 nM
B7 | 0.23 nM | 1.6 nM and 3.18 nM | Affinity [9]: 0.23 nM; Affinity [6]: 0.23 nM
B8 | 0.36 nM |  | Affinity [4]: 0.36 nM
B9 | 0.38 nM |  | Affinity [10]: 0.38 nM
B10 | 0.04 nM | 0.3 nM | Affinity [7]: 0.04 nM
B11 | 0.04 nM | 0.3 nM | Affinity [7]: 0.04 nM
B12 | 0.41 nM |  | Affinity [10]: 0.41 nM
B13 | 0.02 nM | 0.14 nM | Affinity [11]: 0.02 nM
B14 | 0.26 nM |  | Affinity [10]: 0.26 nM
B15 | 0.04 nM | 0.3 nM | Affinity [7]: 0.04 nM
B16 | 0.02 nM | 0.09 nM | Affinity [11]: 0.02 nM; Ka [2]: 1.2e+11 M⁻¹; Kd [2]: 0.0084 nM; koff [2]: 5.42e-05 s⁻¹; kon [2]: 6.49e+06 M⁻¹ s⁻¹
B17 | 0.31 nM |  | Affinity [8]: 0.31 nM
B18 | 0.16 nM | 1.3 nM | Affinity [9]: 0.16 nM
B19 | 0.01 nM | 0.03 nM and 0.04 nM | Affinity [11]: 0.01 nM; Ka [2]: 1.77e+11 M⁻¹; Kd [2]: 0.0057 nM; koff [2]: 3.91e-05 s⁻¹; kon [2]: 6.92e+06 M⁻¹ s⁻¹
B20 | 0.05 nM | 0.2 nM | Affinity [7]: 0.05 nM
B21 | 0.25 nM | 3.5 nM | Affinity [4]: 0.25 nM
B22 | 0.14 nM |  | Affinity [8]: 0.14 nM
B23 | 0.18 nM | 7 nM | Affinity [9]: 0.18 nM
B24 | 0.04 nM | 0.2 nM | Affinity [7]: 0.04 nM
B25 | 0.22 nM | 6.5 nM | Affinity [9]: 0.22 nM
B26 | 0.2 nM | 2 nM and 3.08 nM | Affinity [9]: 0.2 nM; Affinity [6]: 0.2 nM
B27 | 0.59 nM |  | Affinity [10]: 0.59 nM
